Reference: patent US20250320305A1

B1: 4B9_Fab (Fab, from a related filing, V domains shown)
VH: EVQLLESGGGLVQPGGSLRLSCAASGFTFSSYAMSWVRQAPGKGLEWVSAIIGSGASTYYADSVKGRFTISRDNSKNTLYLQMNSLRAEDTAVYYCAKGWFGGFNYWGQGTLVTVSS
VL: EIVLTQSPGTLSLSPGERATLSCRASQSVTSSYLAWYQQKPGQAPRLLINVGSRRATGIPDRFSGSGSGTDFTLTISRLEPEDFAVYYCQQGIMLPPTFGQGTKVEIK
B2: P1AD4470, anti-CD40 control antibody (CD40 IgG1) (antibody, from a related filing, V domains shown)
VH: EVQLVESGGGLVQPGGSLRLSCAASGYSFTGYYIHWVRQAPGKGLEWVARVIPNAGGTSYNQKFKGRFTLSVDNSKNTAYLQMNSLRAEDTAVYYCAREGIYWWGQGTLVTVSS
VL: DIQMTQSPSSLSASVGDRVTITCRSSQSLVHSNGNTFLHWYQQKPGKAPKLLIYTVSNRFSGVPSRFSGSGSGTDFTLTISSLQPEDFATYFCSQTTHVPWTFGQGTKVEIKR

How the values were obtained:
[1] = target: biotinylated recombinant human FAP (human) (UniProt Q12884); assay: SPR (Biacore)
[2] = target: biotinylated recombinant human FAP (human) (UniProt Q12884); assay: SPR (Biacore), biotinylated huFAP on CAPture chip, Fab analyte
[3] = target: human CD40 expressed on cells (human) (UniProt P25942); assay: flow cytometry, primary human B cells
[4] = target: human CD40 extracellular domain with C-terminal His-AviTag (human) (UniProt P25942); assay: SPR, antibody captured, CD40 ECD analyte
[5] = target: human CD40 expressed on cells (human) (UniProt P25942); assay: flow cytometry, Raji cells

| Binder | Kd [1] | T ½ [1] | koff [1] | kon [1] | Kd [2] | koff [2] | kon [2] | EC50 [3] | Kd [4] | koff [4] | kon [4] | EC50 [5] |
| --- | --- | --- | --- | --- | --- | --- | --- | --- | --- | --- | --- | --- |
| B1 | 0.279 nM | 55 min | 0.000208 s⁻¹ | 747000 M⁻¹ s⁻¹ | 0.43 nM | 0.00078 s⁻¹ | 1.82e+06 M⁻¹ s⁻¹ | – | – | – | – | – |
| B2 | – | – | – | – | – | – | – | 0.333 nM | 4.6 nM | 0.00781 s⁻¹ | 1.69e+06 M⁻¹ s⁻¹ | 0.09 µg/mL |
